Measured values from paper PMC3505834 (Nature immunology, 2012).

Target: T1, recombinant soluble CD46 (CCP1-4) (human, UniProt P15529 35-285)
T1 sequence (looked up): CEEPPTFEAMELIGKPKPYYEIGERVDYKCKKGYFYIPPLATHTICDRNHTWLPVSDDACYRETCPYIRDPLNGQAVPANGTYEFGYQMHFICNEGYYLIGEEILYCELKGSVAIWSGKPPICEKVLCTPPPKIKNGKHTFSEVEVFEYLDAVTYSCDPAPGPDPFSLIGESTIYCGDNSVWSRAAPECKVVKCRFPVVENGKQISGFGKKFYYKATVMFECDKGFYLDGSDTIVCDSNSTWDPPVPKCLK
Test: SPR

B1: J-1_(DSL-EGF3), recombinant Jagged1 construct of the DSL and first three EGF-like domains (domain or fragment)
chain: not shown
modifications: c-terminally biotinylated
- Kd: ~8 µM
